Tests used:
Assay in all cases: EC50 of free RNA motif oligo competing protein binding to immobilised probe
HNRNPUL1 = target: T1, HNRNPUL1 (UniProt Q9BUJ2)
T1 sequence: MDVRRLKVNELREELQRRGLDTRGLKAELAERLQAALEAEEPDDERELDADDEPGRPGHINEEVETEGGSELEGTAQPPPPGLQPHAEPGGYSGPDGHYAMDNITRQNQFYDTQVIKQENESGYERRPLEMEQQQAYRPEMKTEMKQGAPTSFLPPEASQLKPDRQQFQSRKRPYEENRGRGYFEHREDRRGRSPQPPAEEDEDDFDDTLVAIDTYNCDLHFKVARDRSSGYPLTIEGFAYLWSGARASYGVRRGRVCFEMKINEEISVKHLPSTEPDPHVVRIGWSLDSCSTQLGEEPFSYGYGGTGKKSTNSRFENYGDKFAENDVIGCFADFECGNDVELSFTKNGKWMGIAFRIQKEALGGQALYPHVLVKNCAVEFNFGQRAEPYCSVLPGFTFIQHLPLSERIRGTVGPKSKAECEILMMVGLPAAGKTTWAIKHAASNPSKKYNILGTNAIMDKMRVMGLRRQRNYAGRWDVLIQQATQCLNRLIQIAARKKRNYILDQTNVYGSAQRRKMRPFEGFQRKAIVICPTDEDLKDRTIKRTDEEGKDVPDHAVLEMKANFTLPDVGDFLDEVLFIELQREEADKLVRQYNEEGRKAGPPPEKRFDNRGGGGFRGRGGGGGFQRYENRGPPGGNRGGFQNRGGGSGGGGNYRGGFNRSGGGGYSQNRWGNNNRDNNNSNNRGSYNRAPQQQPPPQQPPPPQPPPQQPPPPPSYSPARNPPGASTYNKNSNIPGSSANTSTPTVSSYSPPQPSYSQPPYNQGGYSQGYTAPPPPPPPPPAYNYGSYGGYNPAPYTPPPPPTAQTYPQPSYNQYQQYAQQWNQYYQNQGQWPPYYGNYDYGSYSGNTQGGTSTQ
Description: (§1)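 Competition-binding assay: HEK293-FT cell lysate (2.5 mg protein) pre-incubated 1 h at 4°C with free motif-containing RNA oligos (0 to 30 µM, 12 doses), then pulled down with the same 5'-amino-C6 RNA oligos immobilised on NHS-Sepharose beads (30 min, 4°C). Bound proteins were quantified by label-free LC-MS/MS and normalised to the water control. EC50 came from a four-parameter log-logistic fit; Kd = EC50 x depletion factor. Random/reversed control probes are dropped.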

LIN28B = target: T2, LIN28B (UniProt Q6ZN17)
T2 sequence: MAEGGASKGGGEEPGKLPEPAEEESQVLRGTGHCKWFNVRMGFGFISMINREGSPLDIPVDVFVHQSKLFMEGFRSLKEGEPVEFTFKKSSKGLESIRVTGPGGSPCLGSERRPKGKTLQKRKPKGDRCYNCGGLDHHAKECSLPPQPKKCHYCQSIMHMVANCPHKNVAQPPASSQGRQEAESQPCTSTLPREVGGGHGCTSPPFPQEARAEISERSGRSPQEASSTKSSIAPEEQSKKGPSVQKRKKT
Description: as §1

NKRF = target: T3, NKRF (UniProt O15226)
T3 sequence: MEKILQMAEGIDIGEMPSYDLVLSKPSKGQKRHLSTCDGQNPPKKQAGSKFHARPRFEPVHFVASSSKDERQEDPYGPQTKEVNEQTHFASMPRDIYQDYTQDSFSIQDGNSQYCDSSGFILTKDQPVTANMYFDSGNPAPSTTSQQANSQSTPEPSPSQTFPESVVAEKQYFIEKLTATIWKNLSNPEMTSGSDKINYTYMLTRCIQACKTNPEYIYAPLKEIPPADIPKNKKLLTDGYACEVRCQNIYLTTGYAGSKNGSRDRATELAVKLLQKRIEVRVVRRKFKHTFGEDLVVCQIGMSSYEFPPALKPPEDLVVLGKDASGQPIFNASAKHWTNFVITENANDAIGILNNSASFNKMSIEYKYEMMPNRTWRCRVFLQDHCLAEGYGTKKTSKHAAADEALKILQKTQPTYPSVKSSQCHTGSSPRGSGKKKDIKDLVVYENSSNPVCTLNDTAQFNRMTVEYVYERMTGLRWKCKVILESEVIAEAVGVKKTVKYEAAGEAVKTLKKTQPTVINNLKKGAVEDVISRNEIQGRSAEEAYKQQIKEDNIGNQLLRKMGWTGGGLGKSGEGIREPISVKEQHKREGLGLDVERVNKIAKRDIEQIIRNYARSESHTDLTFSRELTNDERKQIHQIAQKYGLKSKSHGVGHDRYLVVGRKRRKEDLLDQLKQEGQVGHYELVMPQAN
Description: as §1

Sequence | EC50 (HNRNPUL1) [nM] | EC50 (LIN28B) [nM] | EC50 (NKRF) [nM]
UAUUUAU | 643 | 1470 | 380
AAUAAA | 1410 | 2920 | 1180
CUGUCCU | 152 | 2300 | 554
